In publication PMC9482650, “Quantitative fragmentomics allow affinity mapping of interactomes” (Nature Communications, 2022):

T1: SHANK1, Q9Y566
T1 sequence (Q9Y566 658-767, limits assumed, looked up): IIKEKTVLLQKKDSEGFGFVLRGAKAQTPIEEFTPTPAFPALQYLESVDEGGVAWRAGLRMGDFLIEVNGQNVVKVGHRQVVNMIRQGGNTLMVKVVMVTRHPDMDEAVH

T2: LNX2_3, Q8N448
T2 sequence (Q8N448 463-564, limits assumed, looked up): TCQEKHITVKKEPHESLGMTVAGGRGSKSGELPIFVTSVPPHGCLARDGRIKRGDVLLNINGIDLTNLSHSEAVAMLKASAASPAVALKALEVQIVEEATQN

T3: LIN7A, O14910
T3 sequence (O14910 103-200, limits assumed, looked up): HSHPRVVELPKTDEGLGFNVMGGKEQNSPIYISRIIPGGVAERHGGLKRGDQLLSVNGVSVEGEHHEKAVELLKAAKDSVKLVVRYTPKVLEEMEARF

T4: MPDZ_12, O75970
T4 sequence (O75970 1857-1958, limits assumed, looked up): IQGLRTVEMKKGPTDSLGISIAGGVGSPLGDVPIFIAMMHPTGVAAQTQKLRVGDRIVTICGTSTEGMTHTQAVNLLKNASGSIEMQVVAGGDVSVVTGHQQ

T5: RAPGEF6, Q8TEU7
T5 sequence (Q8TEU7 525-625, limits assumed, looked up): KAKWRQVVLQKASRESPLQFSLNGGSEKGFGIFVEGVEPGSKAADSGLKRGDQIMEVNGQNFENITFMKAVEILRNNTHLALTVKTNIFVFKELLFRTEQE

T6: CARD11, Q9BXL7
T6 sequence (Q9BXL7 662-765, limits assumed, looked up): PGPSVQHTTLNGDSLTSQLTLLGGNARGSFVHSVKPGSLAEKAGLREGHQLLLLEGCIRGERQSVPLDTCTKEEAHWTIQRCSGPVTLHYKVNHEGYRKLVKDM

T7: NHERF3_4, Q5T2W1
T7 sequence (Q5T2W1 373-468, limits assumed, looked up): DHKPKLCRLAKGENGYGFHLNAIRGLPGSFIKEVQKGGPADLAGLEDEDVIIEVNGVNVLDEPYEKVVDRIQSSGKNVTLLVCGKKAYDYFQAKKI

T8: APBA1_2, Q02410
T8 sequence (Q02410 742-832, limits assumed, looked up): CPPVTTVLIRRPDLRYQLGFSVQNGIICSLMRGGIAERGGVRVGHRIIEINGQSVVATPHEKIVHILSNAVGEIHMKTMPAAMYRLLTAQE

T9: PDZD2_2, O15018
T9 sequence (O15018 329-429, limits assumed, looked up): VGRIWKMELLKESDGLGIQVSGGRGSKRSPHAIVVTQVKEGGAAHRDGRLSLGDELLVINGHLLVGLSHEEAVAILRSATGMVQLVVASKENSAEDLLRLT


These binders were tested against NHERF4_1, Q86UT5-2 (assay: holdup assay). Conditions: plain residues with an end cap or a label only (N-terminal biotin on a linker: ado-ado).
Parameters: key: below the threshold = too weak to quantify, mostly under pKd 3.1 to 4

NHERF4_1, Q86UT5-2, sequence (Q86UT5 other isoform, or with tags, fused parts or gaps): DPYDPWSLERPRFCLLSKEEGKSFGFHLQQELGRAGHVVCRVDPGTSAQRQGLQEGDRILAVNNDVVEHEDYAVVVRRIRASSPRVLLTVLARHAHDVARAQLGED

pKd | Binder
below the threshold | AEDEEIQTKM [UNC93A, Q86WB7]
below the threshold | YPKQMPLSQV [FZD8, Q9H461]

The binders below were run against MAGI2_2, Q86UL8 (assay: holdup assay). Conditions: plain residues with an end cap or a label only (N-terminal biotin on a linker: ado-ado).
Parameters: key: below the threshold = too weak to quantify, mostly under pKd 3.1 to 4

MAGI2_2, Q86UL8, sequence (Q86UL8 410-522): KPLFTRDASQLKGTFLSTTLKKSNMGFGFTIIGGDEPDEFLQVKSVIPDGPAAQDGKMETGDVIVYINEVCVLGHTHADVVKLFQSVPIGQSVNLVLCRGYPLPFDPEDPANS

pKd | Binder
below the threshold | AEDEEIQTKM [UNC93A, Q86WB7]
4.29 | YPKQMPLSQV [FZD8, Q9H461]

The binders below were run against GRIP2_6, Q9C0E4 (assay: holdup assay). Conditions: plain residues with an end cap or a label only (N-terminal biotin on a linker: ado-ado).
Parameters: key: below the threshold = too weak to quantify, mostly under pKd 3.1 to 4

GRIP2_6, Q9C0E4, sequence (Q9C0E4 648-740): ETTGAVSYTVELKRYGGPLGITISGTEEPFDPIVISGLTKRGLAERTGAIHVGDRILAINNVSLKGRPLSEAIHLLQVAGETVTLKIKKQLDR

pKd | Binder
below the threshold | AEDEEIQTKM [UNC93A, Q86WB7]
below the threshold | YPKQMPLSQV [FZD8, Q9H461]

The binders below were run against T1, SHANK1, Q9Y566 (assay: holdup assay). Conditions: plain residues with an end cap or a label only (N-terminal biotin on a linker: ado-ado).
Parameters: key: below the threshold = too weak to quantify, mostly under pKd 3.1 to 4

pKd | Binder
5.21 | AEDEEIQTKM [UNC93A, Q86WB7]
below the threshold | YPKQMPLSQV [FZD8, Q9H461]

What follows are binders tested against DLG5_1, Q8TDM6 (assay: holdup assay). Conditions: plain residues with an end cap or a label only (N-terminal biotin on a linker: ado-ado).
Parameters: key: below the threshold = too weak to quantify, mostly under pKd 3.1 to 4

DLG5_1, Q8TDM6, sequence (Q8TDM6 617-713): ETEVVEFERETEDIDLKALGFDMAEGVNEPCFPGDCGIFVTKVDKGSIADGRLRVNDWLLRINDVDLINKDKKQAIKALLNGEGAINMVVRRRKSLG

pKd | Binder
below the threshold | AEDEEIQTKM [UNC93A, Q86WB7]
below the threshold | YPKQMPLSQV [FZD8, Q9H461]

These binders were tested against MAGI1_1, Q96QZ7 (assay: holdup assay). Conditions: plain residues with an end cap or a label only (N-terminal biotin on a linker: ado-ado).
Parameters: key: below the threshold = too weak to quantify, mostly under pKd 3.1 to 4

MAGI1_1, Q96QZ7, sequence (Q96QZ7 1-106): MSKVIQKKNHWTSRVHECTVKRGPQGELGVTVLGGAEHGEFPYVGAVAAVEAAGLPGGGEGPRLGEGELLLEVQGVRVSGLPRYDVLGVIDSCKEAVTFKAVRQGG

pKd | Binder
below the threshold | AEDEEIQTKM [UNC93A, Q86WB7]
below the threshold | YPKQMPLSQV [FZD8, Q9H461]

What follows are binders tested against LNX1_3, Q8TBB1 (assay: holdup assay). Conditions: plain residues with an end cap or a label only (N-terminal biotin on a linker: ado-ado).
Parameters: key: below the threshold = too weak to quantify, mostly under pKd 3.1 to 4

LNX1_3, Q8TBB1, sequence (Q8TBB1 500-596): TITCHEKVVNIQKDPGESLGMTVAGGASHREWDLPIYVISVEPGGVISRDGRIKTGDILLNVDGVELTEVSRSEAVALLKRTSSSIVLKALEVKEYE

pKd | Binder
below the threshold | AEDEEIQTKM [UNC93A, Q86WB7]
below the threshold | YPKQMPLSQV [FZD8, Q9H461]

These binders were tested against T2, LNX2_3, Q8N448 (assay: holdup assay). Conditions: plain residues with an end cap or a label only (N-terminal biotin on a linker: ado-ado).
Parameters: key: below the threshold = too weak to quantify, mostly under pKd 3.1 to 4

pKd | Binder
below the threshold | AEDEEIQTKM [UNC93A, Q86WB7]
below the threshold | YPKQMPLSQV [FZD8, Q9H461]

The binders below were run against T3, LIN7A, O14910 (assay: holdup assay). Conditions: plain residues with an end cap or a label only (N-terminal biotin on a linker: ado-ado).
Parameters: key: below the threshold = too weak to quantify, mostly under pKd 3.1 to 4

pKd | Binder
below the threshold | AEDEEIQTKM [UNC93A, Q86WB7]
below the threshold | YPKQMPLSQV [FZD8, Q9H461]

The binders below were run against GRASP, Q7Z6J2 (assay: holdup assay). Conditions: plain residues with an end cap or a label only (N-terminal biotin on a linker: ado-ado).
Parameters: key: below the threshold = too weak to quantify, mostly under pKd 3.1 to 4

GRASP, Q7Z6J2, sequence (Q7Z6J2 96-193): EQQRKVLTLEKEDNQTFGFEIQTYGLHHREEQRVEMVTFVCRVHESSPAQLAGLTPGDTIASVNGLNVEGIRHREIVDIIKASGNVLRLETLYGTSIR

pKd | Binder
below the threshold | AEDEEIQTKM [UNC93A, Q86WB7]
below the threshold | YPKQMPLSQV [FZD8, Q9H461]

What follows are binders tested against GRIP2_4, Q9C0E4 (assay: holdup assay). Conditions: plain residues with an end cap or a label only (N-terminal biotin on a linker: ado-ado).
Parameters: key: below the threshold = too weak to quantify, mostly under pKd 3.1 to 4

GRIP2_4, Q9C0E4, sequence (Q9C0E4 446-548): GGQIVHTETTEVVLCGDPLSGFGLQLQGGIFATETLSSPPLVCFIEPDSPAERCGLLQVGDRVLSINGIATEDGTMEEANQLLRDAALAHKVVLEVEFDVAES

pKd | Binder
below the threshold | AEDEEIQTKM [UNC93A, Q86WB7]
below the threshold | YPKQMPLSQV [FZD8, Q9H461]

These binders were tested against T4, MPDZ_12, O75970 (assay: holdup assay). Conditions: plain residues with an end cap or a label only (N-terminal biotin on a linker: ado-ado).
Parameters: key: below the threshold = too weak to quantify, mostly under pKd 3.1 to 4

pKd | Binder
below the threshold | AEDEEIQTKM [UNC93A, Q86WB7]
below the threshold | YPKQMPLSQV [FZD8, Q9H461]

The binders below were run against SCRIB_1, Q14160 (assay: holdup assay). Conditions: plain residues with an end cap or a label only (N-terminal biotin on a linker: ado-ado).
Parameters: key: below the threshold = too weak to quantify, mostly under pKd 3.1 to 4

SCRIB_1, Q14160, sequence (Q14160 718-814): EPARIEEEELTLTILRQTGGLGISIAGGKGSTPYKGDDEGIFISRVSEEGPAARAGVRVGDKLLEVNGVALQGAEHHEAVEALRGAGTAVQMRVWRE

pKd | Binder
below the threshold | AEDEEIQTKM [UNC93A, Q86WB7]
below the threshold | YPKQMPLSQV [FZD8, Q9H461]

These binders were tested against T5, RAPGEF6, Q8TEU7 (assay: holdup assay). Conditions: plain residues with an end cap or a label only (N-terminal biotin on a linker: ado-ado).
Parameters: key: below the threshold = too weak to quantify, mostly under pKd 3.1 to 4

pKd | Binder
below the threshold | AEDEEIQTKM [UNC93A, Q86WB7]
below the threshold | YPKQMPLSQV [FZD8, Q9H461]

These binders were tested against T6, CARD11, Q9BXL7 (assay: holdup assay). Conditions: plain residues with an end cap or a label only (N-terminal biotin on a linker: ado-ado).
Parameters: key: below the threshold = too weak to quantify, mostly under pKd 3.1 to 4

pKd | Binder
below the threshold | AEDEEIQTKM [UNC93A, Q86WB7]
below the threshold | YPKQMPLSQV [FZD8, Q9H461]

What follows are binders tested against PARD3_3, Q8TEW0 (assay: holdup assay). Conditions: plain residues with an end cap or a label only (N-terminal biotin on a linker: ado-ado).
Parameters: key: below the threshold = too weak to quantify, mostly under pKd 3.1 to 4

PARD3_3, Q8TEW0, sequence (Q8TEW0 582-685): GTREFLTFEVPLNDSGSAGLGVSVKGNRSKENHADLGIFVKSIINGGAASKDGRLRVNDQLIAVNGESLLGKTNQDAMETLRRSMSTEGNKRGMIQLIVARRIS

pKd | Binder
below the threshold | AEDEEIQTKM [UNC93A, Q86WB7]
below the threshold | YPKQMPLSQV [FZD8, Q9H461]

What follows are binders tested against DLG4_3, P78352 (assay: holdup assay). Conditions: plain residues with an end cap or a label only (N-terminal biotin on a linker: ado-ado).
Parameters: key: below the threshold = too weak to quantify, mostly under pKd 3.1 to 4

DLG4_3, P78352, sequence (P78352 306-403): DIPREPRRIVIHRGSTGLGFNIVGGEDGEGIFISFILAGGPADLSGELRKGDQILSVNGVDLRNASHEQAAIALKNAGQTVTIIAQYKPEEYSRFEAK

pKd | Binder
below the threshold | AEDEEIQTKM [UNC93A, Q86WB7]
below the threshold | YPKQMPLSQV [FZD8, Q9H461]

Each binder was assayed against SNX27, Q96L92 (assay: holdup assay). Conditions: plain residues with an end cap or a label only (N-terminal biotin on a linker: ado-ado).
Parameters: key: below the threshold = too weak to quantify, mostly under pKd 3.1 to 4

pKd | Binder
4.5 | AEDEEIQTKM [UNC93A, Q86WB7]
3.97 | YPKQMPLSQV [FZD8, Q9H461]

Each binder was assayed against TJP2_1, Q9UDY2 (assay: holdup assay). Conditions: plain residues with an end cap or a label only (N-terminal biotin on a linker: ado-ado).
Parameters: key: below the threshold = too weak to quantify, mostly under pKd 3.1 to 4

TJP2_1, Q9UDY2, sequence (Q9UDY2 24-128): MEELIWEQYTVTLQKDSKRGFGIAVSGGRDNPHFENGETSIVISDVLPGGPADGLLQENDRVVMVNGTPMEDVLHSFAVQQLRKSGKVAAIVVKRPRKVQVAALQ

pKd | Binder
below the threshold | AEDEEIQTKM [UNC93A, Q86WB7]
below the threshold | YPKQMPLSQV [FZD8, Q9H461]

The binders below were run against T7, NHERF3_4, Q5T2W1 (assay: holdup assay). Conditions: plain residues with an end cap or a label only (N-terminal biotin on a linker: ado-ado).
Parameters: key: below the threshold = too weak to quantify, mostly under pKd 3.1 to 4

pKd | Binder
4.52 | AEDEEIQTKM [UNC93A, Q86WB7]
below the threshold | YPKQMPLSQV [FZD8, Q9H461]

The binders below were run against Inadl_3, Q8NI35 (assay: holdup assay). Conditions: plain residues with an end cap or a label only (N-terminal biotin on a linker: ado-ado).
Parameters: key: below the threshold = too weak to quantify, mostly under pKd 3.1 to 4

Inadl_3, Q8NI35, sequence (Q8NI35 359-469): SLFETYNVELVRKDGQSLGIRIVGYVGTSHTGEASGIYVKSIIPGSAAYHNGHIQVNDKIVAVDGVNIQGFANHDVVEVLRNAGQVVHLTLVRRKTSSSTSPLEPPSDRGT

pKd | Binder
below the threshold | AEDEEIQTKM [UNC93A, Q86WB7]
below the threshold | YPKQMPLSQV [FZD8, Q9H461]

What follows are binders tested against IL16_4, Q14005 (assay: holdup assay). Conditions: plain residues with an end cap or a label only (N-terminal biotin on a linker: ado-ado).
Parameters: key: below the threshold = too weak to quantify, mostly under pKd 3.1 to 4

IL16_4, Q14005, sequence (Q14005 1229-1329): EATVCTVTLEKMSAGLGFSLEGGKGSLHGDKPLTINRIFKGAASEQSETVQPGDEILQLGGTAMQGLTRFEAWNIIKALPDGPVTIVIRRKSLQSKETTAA

pKd | Binder
3.52 | AEDEEIQTKM [UNC93A, Q86WB7]
below the threshold | YPKQMPLSQV [FZD8, Q9H461]

Each binder was assayed against HTRA2, O43464 (assay: holdup assay). Conditions: plain residues with an end cap or a label only (N-terminal biotin on a linker: ado-ado).
Parameters: key: below the threshold = too weak to quantify, mostly under pKd 3.1 to 4

HTRA2, O43464, sequence (O43464 355-458): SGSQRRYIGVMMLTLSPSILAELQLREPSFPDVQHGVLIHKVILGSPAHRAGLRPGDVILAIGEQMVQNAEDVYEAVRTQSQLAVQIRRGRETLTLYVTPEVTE

pKd | Binder
below the threshold | AEDEEIQTKM [UNC93A, Q86WB7]
below the threshold | YPKQMPLSQV [FZD8, Q9H461]

What follows are binders tested against Inadl_9, Q8NI35 (assay: holdup assay). Conditions: plain residues with an end cap or a label only (N-terminal biotin on a linker: ado-ado).
Parameters: key: below the threshold = too weak to quantify, mostly under pKd 3.1 to 4

Inadl_9, Q8NI35, sequence (Q8NI35 1530-1615): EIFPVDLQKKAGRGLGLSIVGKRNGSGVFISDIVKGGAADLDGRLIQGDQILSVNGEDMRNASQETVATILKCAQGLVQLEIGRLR

pKd | Binder
below the threshold | AEDEEIQTKM [UNC93A, Q86WB7]
below the threshold | YPKQMPLSQV [FZD8, Q9H461]

Each binder was assayed against LIMK2, P53671 (assay: holdup assay). Conditions: plain residues with an end cap or a label only (N-terminal biotin on a linker: ado-ado).
Parameters: key: below the threshold = too weak to quantify, mostly under pKd 3.1 to 4

LIMK2, P53671, sequence (P53671 143-248): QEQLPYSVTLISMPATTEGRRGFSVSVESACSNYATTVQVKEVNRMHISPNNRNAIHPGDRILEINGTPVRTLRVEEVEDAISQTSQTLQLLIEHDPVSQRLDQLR

pKd | Binder
below the threshold | AEDEEIQTKM [UNC93A, Q86WB7]
below the threshold | YPKQMPLSQV [FZD8, Q9H461]

These binders were tested against T8, APBA1_2, Q02410 (assay: holdup assay). Conditions: plain residues with an end cap or a label only (N-terminal biotin on a linker: ado-ado).
Parameters: key: below the threshold = too weak to quantify, mostly under pKd 3.1 to 4

pKd | Binder
below the threshold | AEDEEIQTKM [UNC93A, Q86WB7]
3.81 | YPKQMPLSQV [FZD8, Q9H461]

These binders were tested against Inadl_8, Q8NI35 (assay: holdup assay). Conditions: plain residues with an end cap or a label only (N-terminal biotin on a linker: ado-ado).
Parameters: key: below the threshold = too weak to quantify, mostly under pKd 3.1 to 4

Inadl_8, Q8NI35, sequence (Q8NI35 1425-1530): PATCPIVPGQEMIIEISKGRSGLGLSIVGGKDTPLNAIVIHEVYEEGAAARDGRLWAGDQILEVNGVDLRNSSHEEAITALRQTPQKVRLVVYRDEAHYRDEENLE

pKd | Binder
below the threshold | AEDEEIQTKM [UNC93A, Q86WB7]
4.61 | YPKQMPLSQV [FZD8, Q9H461]

These binders were tested against NHERF2_2, Q15599 (assay: holdup assay). Conditions: plain residues with an end cap or a label only (N-terminal biotin on a linker: ado-ado).
Parameters: key: below the threshold = too weak to quantify, mostly under pKd 3.1 to 4

NHERF2_2, Q15599, sequence (Q15599 142-238): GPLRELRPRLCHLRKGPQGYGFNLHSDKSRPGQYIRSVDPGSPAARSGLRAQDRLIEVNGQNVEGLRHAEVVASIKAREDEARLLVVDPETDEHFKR

pKd | Binder
4.81 | AEDEEIQTKM [UNC93A, Q86WB7]
below the threshold | YPKQMPLSQV [FZD8, Q9H461]

Each binder was assayed against T9, PDZD2_2, O15018 (assay: holdup assay). Conditions: plain residues with an end cap or a label only (N-terminal biotin on a linker: ado-ado).
Parameters: key: below the threshold = too weak to quantify, mostly under pKd 3.1 to 4

pKd | Binder
below the threshold | AEDEEIQTKM [UNC93A, Q86WB7]
4.23 | YPKQMPLSQV [FZD8, Q9H461]
